From the domain aggregation screens of Martell et al. (2025)

Assay: soluble fraction after stress (log2 fold change); higher = more stays soluble; pooled small domains, quantitative proteomics
Conditions: stress: 50 degC
In short: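 Quantitative proteomics served as the high-throughput read-out for pooled custom libraries of small protein domains. Each was stressed at 50°C. Aggregation propensity is expressed as the base-two log fold change in soluble protein after stress. A higher value means a larger share of the protein remains in solution.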

Row | Sequence | soluble fraction (log2)
1 | HMNKITIEEAKSIALKHSNLDESQVSFIRSEYDFDNGIEKYEIEFYYNNNKYEYEINAKTGDIISYDYDI | -0.292
2 | HMNKKAAYKDMAGYFAEMKSKDAADILSRLKDEDIIGIFNEMPRDMVAEMLQKMDRDKATTLTRKML | 0.385
3 | HMNKKEQYQNIISNFLEKMSEEDRLIFNMHFFKSINISQIARSIDREGYYVKTKIENLLADLKSLMIGNNL | -1.95
4 | HMNKKETRLNNFIHFLKIRNSITVKEMANHLNVSEMTVRRDIKELTADHTINFENGKIMFNPQSSL | -1.06
5 | HMNKLIIDAAEDKIFFMIMNNDISYNISHENTKINFEKLIILINDFLSSKKLKINDITGLYV | 0.067
6 | HMNKNIKIPNISNLSREDAESVLKESGISVSTEIKEVESDTIEKGKVVKTEPSIGSTVKQGRTITIYISSG | 0.0574
7 | HMNKRYKVQVTTDNLKIRKGAGTSYPVVGHITDKGTYTIVETSGKWGKLLSGAGWIYLSYTKK | -1.76
8 | HMNKTEIISILEKIVLPTQIRNINIFGSEVIIDLNIDNPSLHAKKKLEKSIINSFDKNHKIIINFNVE | -0.232
9 | HMNKTLTEQIYDELKSAIIELELKPGEFVTEEYLAEQLGVSRTPLKSAISKLIFEGLMAYEVGKGTYIS | -0.747
10 | HMNKVQTFIIEKHIKEVFEHTNRTYYRSGQYYFQTRDEFSMALKRFLKDREPNKKNWIDSIINRA | -0.298
11 | HMNKYQFESKIHIYRATKRMTQQELADLVGVSRQTIMQLERNRYNPSMMLAYGIAKVFDVTIEDLFDFSEV | -2.05
12 | HMNKYYQQLLQADPTGFIDPFKDLGTYDSRLNTFKEPVSELLNPFSGRPYSKIWQKRIETMREIFISYIKS | -2.86
13 | HMNLDVEQIKKEALNQLIEIGNENDGIVTIKDFKKIDDISSLDEDDIEDIRNLLIENNIEIFE | 0.127
14 | HMNLEQTIVLGKRLFNNALDTLGKKQRSIKNKQINKLLELLNFKNMNELYQSIGVGDKNPLLMAQMML | -0.458
15 | HMNLESNQYVIDISDSQVINKDEFETILNQNKTKDIVIKSNNNVTFTFEKGSMIGAEGKDNYDFSSQVNY | -0.0368
16 | HMNLFNEIEKQYQALQDRSSASLVDLRHLLLDIEELVNSPDYQALAPDQRSTLQAARKELMRRIQKQEN | 0.213
17 | HMNLGDSLFHARRKQGLSQEAVAEQLGVSRQTVSKWEANETLPDIRQSKLMAKLYHTSLDELI | 0.00427
18 | HMNLLDYTTLYVTSDGKSVSFGIAGKEIPVSYIAQEAPGTVVIDDTIRIPRKYDMEYILKRFNES | -1.03
19 | HMNLLGDNIRKLRLEKGLGLNEVARLANITGGYLSSIENNKRTNVGTEILESIAKAIGVSVSDFYL | -0.0298
20 | HMNLLGERIREIRMEMGLTAKELAQRASVTPGYISQIEHDQIKPSMNVMMRIAEVLNVPMAALLM | -0.51
21 | HMNLLPAGTYKLKDLVTAEDEEIGAKKGDVVIAHEDTPPSDRVLGVDIFPVIHKNTSKKIYVSLEDI | 0.46
22 | HMNLMQIHVARPPNQLGVFSQEEVAAGLQSGRFLPTDQAWRDGMSAWTPLSQWAEFSSVVAAV | 0.083
23 | HMNLNLDITTYKLEELENLLKLKPNYKQEQIFEAKTKMEKFILKSNLNESKREELYIFLDNIYNKLTNNLL | -2.17
24 | HMNLPISDREKELLTLLSKGLLYKEIASKLDITIGTVKQHIHNIYHKLHVSNKTEALNLFNK | -0.685
25 | HMNLRLKEVLDEKNMSLVTLSEKTGIEKGNLSAISNNKKNPTVETLSKIAKALQISLAELFESPP | 0.303

Row | Sequence | soluble fraction (log2)
26 | HMNLSDIETWLRELSLEKYALAFSEAEIDFETLPELTEDDLKEVGLPVGPRRKVWGAIQLLRTTD | -1.42
27 | HMNLSNVVIRKVQEMILSGELQEGDKLPPEREMTQRLGIGRPALREGLKSLEMLGLVERRHGLGNFIINKV | -0.783
28 | HMNLSPADFSSVRNALGLSLSTVAKESGINRNYLSNFEKKKHFLEETAKVKLRDYYMSIDPDAFAAAL | -0.177
29 | HMNLVGGKINSLMTTKNVTIQDLSERSGLTVSQIELLLSGDKVPSLAVLIKIARGLGVRVGTFL | -1.3
30 | HMNLVRQHTDYAFRLLVALSQAPGKPISTRTLASAADVPYQFASKIMQKLHEEGLVESVMGPFGGFRLVQ | -2.52
31 | HMNLWIDNTQVINDWTEGASERSGSIYLTAGVKPIKMQYFDSVLNAKAILRWQGPGINKSVVPSSALTPG | -0.855
32 | HMNMEDIADKIGRLYDNLPDDLKLMIKYRDIDDMTYDEIARKANLPIGTVRSRLHRARDILLREI | -0.647
33 | HMNMFGIQRRNHLLSLLQEKKSITVQEAAVIFEVAEETIRRDFRTMEGQGLIVRTHGGALLADD | -2.19
34 | HMNMMIIHVNGEKYSFQEPITISELILKLELDSRKIAIEYNLEILPRSLFEITSIKNGDKIEIVHFI | -2.37
35 | HMNMPYGTVKWFNDAKGFGFIAPEDGSADVFVHFSAINSKGFRSLQEGQRVSYEVTTGPKGAQAAGVTPVT | -0.331
36 | HMNMYTVTGRLVDQDGVPQANALVTIDSSSQQTRTSPQGFYLIKVFGTEPSTIKFLVDGYDPQIVNFTP | -0.21
37 | HMNNDIDRVFAELTVLSQKKGYLVFDDIEKGTEDLSVNEVDWLTNRLLTSGVEIFDDVPDTIK | -0.205
38 | HMNNDSQYLATLQRYYAEHRVLPSYARMLPLLGFASKAAVKKVLERLEVVGMLERTEDGDWAPSERFFER | -1.7
39 | HMNNGYSINEIAKLMKMTLKVVRRYVASGELKTTKTNNTYSISEEAFNEFKKYIEEGGDAKHAQEVADTFK | -0.229
40 | HMNNIGENIKKYRTKQGLSQEDFAKKSGVKYTTLTKIESGVIKKPSVLVMAKIAKALGVNIEELI | -0.0879
41 | HMNNIINEAQIKQWVEEFYLSVSPRPTRATMIALVHKKIKEETKDGEEGQTVSETLINNFYTALEKEHKRK | -0.0384
42 | HMNNIPFIITDERLNVIQSHLVPREVLDHPDRLRRQIDRFTEENQPKTVNYWWGPEHRHIIFYGKSK | 0.445
43 | HMNNIYFSPVVEENNKGLRLDKFLAASFPEFSRSQLQRLILEGNVSNDDVVIADNSQKVRVGDSFQVIVPE | -0.0377
44 | HMNNKSDLLFNHLRQRIATMENGTIFPSVRQLMTEYNVSQSTVSTAIRSLKELGLLEALSRQGMVVRKE | -0.476
45 | HMNNLGSKIKELRIAENLTQEKLAEELNVSFQSISRWENGISTPDISLIPAIARFFGVSTDYLFGLQD | -0.384
46 | HMNNLPDFIKQLRKENNLTQEYVASEIGVSRPTYEQIEKGKRELTISEAEKLAKIFNIPLENFLQGKKGV | 0.184
47 | HMNNPLPDLLKYFRKKKHLTQEQVAKQLSVSRASYASYETGRIIPGMQHIMELSRILEHDFLFAYTLAVQ | -2.34
48 | HMNNPNFAIQKYVTGSDIKRVRKTLRLTQKKFAELVGVSKATMERWETKEDKITGPVVLLLKILEDHPEY | -1.3
49 | HMNNQKATAVKVASGIVNLRSGPATSYETLDTVATGETLSVLAEKDGWFQVSRAGRTGWVAGWVVDVIRE | -0.0645
50 | HMNNSSIGERLKYQRKIKGYSQEELADRTNVTVRTIQRIEKEEVSPHLNTIKLLAIALDIEVDELVAL | -1.25

Row | Sequence | soluble fraction (log2)
51 | HMNNSVAYSTFLNDIRTNTLKDVDMTSNSETINVTKKDGTKYQTVMPMYDRDLLADLSKTDATVTGQP | 0.28
52 | HMNNTIKFSVDIKNSGKRLDIFLSENVTQYTRSYLKRLIENSHVKLNNKILNSPSTKVKFQDQIIINNIE | -1.91
53 | HMNNTIKFSVDTTNSGKRLDIFLAENIKQFTRSYLKKIISNNQVKLNNLVANSPSIKVKHSDLILINILE | -1.82
54 | HMNNTVLSSVKSINMFLDANGGDAGQAFRIYNNTNPDSNPTESTYIFKVAEDGNTFVKGYLNLNGTTL | 0.014
55 | HMNNVRIEHIDTIGTVRLHKKRGVKRVSLRIHQSGEIRVTQPLYLPFSAGVLFAKSHTEWIMKQKQK | -0.000591
56 | HMNNWRRSLEREVTASLARGDRDIFDGLNRSFEAALITKALEHTGGRRIEAATLLGIGRNTLTRKIQDLGL | -1.83
57 | HMNNYEGIVKSVSNSNVYIQVAGRTIGYTISPHTIIMVNGKNVPASELMPGQHVSYTNKGSKLSYININS | -0.103
58 | HMNNYFPAYKGSATSIAPALKQMGVNNSYAYRSKIAAVNNITGYRGTPAQNTQMLNLLKQGRLIK | 0.362
59 | HMNNYNDSVQKIINYIADNLNENLSVRKLADKMPMSVSHFNRVFQKYTGDSPYAYVMAMRIKKAKYL | 0.0162
60 | HMNPAIYIRKNILNLTQEKLSEYLDVTQPTIHRWEESGVIPAKHQRQIREFASEKGIYWNDSWFFSIPDE | -0.953
61 | HMNPDMIAGVLKVPAAAGRLRSALFELGVVDDESYDDDGASRLTVTASQSDLERIVAQAGLVFEDVLVERR | -0.0627
62 | HMNPEAFIQTLKQILSTYEKNDPIYLQEIKADLVKKFRIEIPINALETYLKENGYSNIYLKR | -0.133
63 | HMNPEDLSGVRKAAILLLTMDDEVTKDVMKGLDEEEIEAIGKEITNLKLIPDHVVHRVQEEFMTKVSK | 0.0913
64 | HMNPESRRSELIDAATKLFFSRGYTATSIRDILDAVDDRTASPSVFYYYFESKEAIYQAVLQRYTD | -2.03
65 | HMNPETPAQQAVRKRLIVSVQFYRRLKDTPLKAVWQVAARDTLVNGYNLFLKRNIHAFNDRTLSTPSALS | -0.0672
66 | HMNPFPDNTAEVLSQFKNIIVPELNTGQLSKLLRARYLVDTVGINKVEGLPFTAQELEEKIESLINSF | -0.323
67 | HMNPGQIIRKLRQDQGMTLAVLAKYANLDPGNLSRIERDDLNISFNLLEKLSLILNVSPIVFFH | -0.154
68 | HMNPLSELSFEERRELFLEAAVRLFEEKGYKNTSVEDIAGELGFTKKVFYYYWKNKREIVQEIHDRGMA | -0.479
69 | HMNPNFIEVSHGRLRVNVPLSAYEGTTYHIKPEEAEKLKRTLASRYPWLTPNALKVFIEEAEQAMRERIQ | -0.29
70 | HMNPSKEFNMSDLLKAKMVGDVSAAKRREKAGALLHIGYGNAKTFLKKLNHFSISREEWDKVIAAMEEF | -0.743
71 | HMNPSVSSDERILLQKALGILSAEQKQIVMLHAVAGIKHREIAKLLDMPIATVLSKYSRAVNKLRHAMEA | -0.423
72 | HMNPTTDFFKLEGIDATRILVFDQVGRQVAQFSQPAQQMDIQALPAGVYALRIENADGQVYSARIVK | -0.16
73 | HMNPVVATTIILDGEIIKDNLAEANLSEEWLLEELKRQNFNDVKEVFYAEWLDGKQLFAYPYTK | -0.224
74 | HMNQDIIEIGNNIQKIRKKNGISQSVLAEKIDVAGNSIYRMEGATTVMGVDKLINIADALNTSPMDILPAR | 0.13
75 | HMNQDMINFDKLSVRLKNVLIENNLKTVDSLLNYPAEEFEYLTNLGEKTLQELLTYRNELAASNNIQ | -0.289
